Assay results published in US20170355766A1 (Xencor, published 2017).

Columns and labels:
Assay in all cases: SPR (Biacore)
FcγRIIaR = biological target: T1, FcγRIIaR (human, UniProt P12318)
T1 construct: recombinant receptor protein with 6xHis and GST tags; also called R131 FcγRIIa
T1 sequence (receptor, looked up): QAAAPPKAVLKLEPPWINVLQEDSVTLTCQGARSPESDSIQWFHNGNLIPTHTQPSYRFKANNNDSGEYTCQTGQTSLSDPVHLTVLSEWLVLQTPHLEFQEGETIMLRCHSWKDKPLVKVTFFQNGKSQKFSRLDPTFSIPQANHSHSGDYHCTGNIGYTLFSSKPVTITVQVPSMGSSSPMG

[1] = biological target: T2, human H131 FcγRIIa receptor protein (6xHis and GST tags) (human, UniProt P12318 34-217, limits assumed)
T2 construct: also called HIIa
T2 sequence (looked up): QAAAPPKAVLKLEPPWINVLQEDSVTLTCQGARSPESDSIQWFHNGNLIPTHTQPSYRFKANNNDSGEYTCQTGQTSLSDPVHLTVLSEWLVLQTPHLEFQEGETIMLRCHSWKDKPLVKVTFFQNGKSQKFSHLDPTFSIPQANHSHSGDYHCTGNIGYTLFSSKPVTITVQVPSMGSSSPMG

[2] = biological target: T3, human V158 FcγRIIIa receptor protein (6xHis and GST tags) (human, UniProt P08637 17-208, limits assumed)
T3 construct: also called VIIIa
T3 sequence (P08637 17-208 F176V limits assumed): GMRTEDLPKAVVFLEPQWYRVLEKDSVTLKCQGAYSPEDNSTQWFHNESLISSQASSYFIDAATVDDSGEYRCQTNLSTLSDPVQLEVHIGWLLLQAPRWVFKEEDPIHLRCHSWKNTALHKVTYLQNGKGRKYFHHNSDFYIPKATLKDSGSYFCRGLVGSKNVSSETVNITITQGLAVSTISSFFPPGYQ

[3] = biological target: T4, human FcγRIIb receptor protein (R&D Systems) (human, UniProt P31994 46-217)
T4 construct: Analyte injected over antibodies captured on a protein A/G chip (Biacore); also called CD32b
T4 sequence (looked up): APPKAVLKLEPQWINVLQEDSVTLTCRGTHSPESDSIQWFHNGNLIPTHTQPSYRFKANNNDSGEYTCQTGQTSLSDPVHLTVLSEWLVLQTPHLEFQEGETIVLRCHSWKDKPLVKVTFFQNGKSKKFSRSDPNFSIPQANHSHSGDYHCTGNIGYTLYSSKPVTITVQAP

[4] = biological target: T5, human FcγRI receptor protein (R&D Systems) (human, UniProt P12314 16-288)
T5 construct: also called CD64
T5 sequence (P12314 16-288 limits assumed): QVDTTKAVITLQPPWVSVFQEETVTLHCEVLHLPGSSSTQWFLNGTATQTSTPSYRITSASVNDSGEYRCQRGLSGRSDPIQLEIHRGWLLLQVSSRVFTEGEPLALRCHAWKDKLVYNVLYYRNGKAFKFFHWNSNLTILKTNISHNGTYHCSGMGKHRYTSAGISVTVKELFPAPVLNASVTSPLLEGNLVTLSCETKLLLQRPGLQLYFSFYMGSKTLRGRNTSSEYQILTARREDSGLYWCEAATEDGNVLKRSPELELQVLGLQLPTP

Row | Fold FcγRIIaR (FcγRIIaR) | Fold FcγRIIaH [1] | Fold FcγRIIIaV [2] | Fold FcγRIIb [3] | Fold FcγRI [4] | binding result [1] | binding result [2] | Binder
1 | 1.6 fold | 0.733 fold | 0.398 fold | 1.33 fold | 2.06 fold |  |  | A327D (antibody, human IgG1, kappa, HuAM4G7 IgG1 Fc variant) heavy: not shown light: DIVMTQSPATLSLSPGERATLSCRSSKSLQNVNGNTYLYWFQQKPGQSPQLLIYRMSNLNSGVPDRFSGSGSGTEFTLTISSLEPEDFAVYYCMQHLEYPITFGAGTKLEIKRTVAAPSVFIFPPSDEQLKSGTASVVCLLNNFYPREAKVQWKVDNALQSGNSQESVTEQDSKDSTYSLSSTLTLSKADYEKHKVYACEVTHQGLSSPVTKSFNRGEC
2 | 0.609 fold |  |  | 0.843 fold | 0.0279 fold | no binding | no binding | A327N (antibody, human IgG1, kappa, HuAM4G7 IgG1 Fc variant) heavy: not shown light: DIVMTQSPATLSLSPGERATLSCRSSKSLQNVNGNTYLYWFQQKPGQSPQLLIYRMSNLNSGVPDRFSGSGSGTEFTLTISSLEPEDFAVYYCMQHLEYPITFGAGTKLEIKRTVAAPSVFIFPPSDEQLKSGTASVVCLLNNFYPREAKVQWKVDNALQSGNSQESVTEQDSKDSTYSLSSTLTLSKADYEKHKVYACEVTHQGLSSPVTKSFNRGEC
3 | 26.7 fold | 0.217 fold |  | 84.8 fold | 0.0685 fold |  | no binding | G236D/S239D/S267E (antibody, human IgG1, kappa, HuAM4G7 IgG1 Fc variant) heavy: EVQLVESGGGLVKPGGSLKLSCAASGYTFTSYVMHWVRQAPGKGLEWIGYINPYNDGTKYNEKFQGRVTISSDKSISTAYMELSSLRSEDTAMYYCARGTYYYGTRVFDYWGQGTLVTVSSASTKGPSVFPLAPSSKSTSGGTAALGCLVKDYFPEPVTVSWNSGALTSGVHTFPAVLQSSGLYSLSSVVTVPSSSLGTQTYICNVNHKPSNTKVDKKVEPKSCDKTHTCPPCPAPELLDGPDVFLFPPKPKDTLMISRTPEVTCVVVDVEHEDPEVKFNWYVDGVEVHNAKTKPREEQYNSTYRVVSVLTVLHQDWLNGKEYKCKVSNKALPAPIEKTISKAKGQPREPQVYTLPPSREEMTKNQVSLTCLVKGFYPSDIAVEWESNGQPENNYKTTPPVLDSDGSFFLYSKLTVDKSRWQQGNVFSCSVMHEALHNHYTQKSLSLSPGK light: DIVMTQSPATLSLSPGERATLSCRSSKSLQNVNGNTYLYWFQQKPGQSPQLLIYRMSNLNSGVPDRFSGSGSGTEFTLTISSLEPEDFAVYYCMQHLEYPITFGAGTKLEIKRTVAAPSVFIFPPSDEQLKSGTASVVCLLNNFYPREAKVQWKVDNALQSGNSQESVTEQDSKDSTYSLSSTLTLSKADYEKHKVYACEVTHQGLSSPVTKSFNRGEC
4 | 2.33 fold | 3.76 fold |  | 1.02 fold | 0.0268 fold |  |  | G236S (antibody, human IgG1, kappa, HuAM4G7 IgG1 Fc variant) heavy: not shown light: DIVMTQSPATLSLSPGERATLSCRSSKSLQNVNGNTYLYWFQQKPGQSPQLLIYRMSNLNSGVPDRFSGSGSGTEFTLTISSLEPEDFAVYYCMQHLEYPITFGAGTKLEIKRTVAAPSVFIFPPSDEQLKSGTASVVCLLNNFYPREAKVQWKVDNALQSGNSQESVTEQDSKDSTYSLSSTLTLSKADYEKHKVYACEVTHQGLSSPVTKSFNRGEC
5 | 0.35 fold | 0.486 fold |  |  | 0.0157 fold |  | no binding | G236T (antibody, human IgG1, kappa, HuAM4G7 IgG1 Fc variant) heavy: not shown light: DIVMTQSPATLSLSPGERATLSCRSSKSLQNVNGNTYLYWFQQKPGQSPQLLIYRMSNLNSGVPDRFSGSGSGTEFTLTISSLEPEDFAVYYCMQHLEYPITFGAGTKLEIKRTVAAPSVFIFPPSDEQLKSGTASVVCLLNNFYPREAKVQWKVDNALQSGNSQESVTEQDSKDSTYSLSSTLTLSKADYEKHKVYACEVTHQGLSSPVTKSFNRGEC
6 | 416 fold |  | 0.216 fold | 428 fold | 1.45 fold |  |  | S239D/S267E/L328F (antibody, human IgG1, kappa, HuAM4G7 IgG1 Fc variant) heavy: EVQLVESGGGLVKPGGSLKLSCAASGYTFTSYVMHWVRQAPGKGLEWIGYINPYNDGTKYNEKFQGRVTISSDKSISTAYMELSSLRSEDTAMYYCARGTYYYGTRVFDYWGQGTLVTVSSASTKGPSVFPLAPSSKSTSGGTAALGCLVKDYFPEPVTVSWNSGALTSGVHTFPAVLQSSGLYSLSSVVTVPSSSLGTQTYICNVNHKPSNTKVDKKVEPKSCDKTHTCPPCPAPELLGGPDVFLFPPKPKDTLMISRTPEVTCVVVDVEHEDPEVKFNWYVDGVEVHNAKTKPREEQYNSTYRVVSVLTVLHQDWLNGKEYKCKVSNKAFPAPIEKTISKAKGQPREPQVYTLPPSREEMTKNQVSLTCLVKGFYPSDIAVEWESNGQPENNYKTTPPVLDSDGSFFLYSKLTVDKSRWQQGNVFSCSVMHEALHNHYTQKSLSLSPGK light: DIVMTQSPATLSLSPGERATLSCRSSKSLQNVNGNTYLYWFQQKPGQSPQLLIYRMSNLNSGVPDRFSGSGSGTEFTLTISSLEPEDFAVYYCMQHLEYPITFGAGTKLEIKRTVAAPSVFIFPPSDEQLKSGTASVVCLLNNFYPREAKVQWKVDNALQSGNSQESVTEQDSKDSTYSLSSTLTLSKADYEKHKVYACEVTHQGLSSPVTKSFNRGEC
7 | 0.688 fold |  | 3.49 fold | 0.803 fold | 1.65 fold |  |  | S239E (antibody, human IgG1, kappa, HuAM4G7 IgG1 Fc variant) heavy: not shown light: DIVMTQSPATLSLSPGERATLSCRSSKSLQNVNGNTYLYWFQQKPGQSPQLLIYRMSNLNSGVPDRFSGSGSGTEFTLTISSLEPEDFAVYYCMQHLEYPITFGAGTKLEIKRTVAAPSVFIFPPSDEQLKSGTASVVCLLNNFYPREAKVQWKVDNALQSGNSQESVTEQDSKDSTYSLSSTLTLSKADYEKHKVYACEVTHQGLSSPVTKSFNRGEC
8 | 4.29 fold |  | 0.952 fold | 3.6 fold | 1.15 fold |  |  | S267A (antibody, human IgG1, kappa, HuAM4G7 IgG1 Fc variant) heavy: not shown light: DIVMTQSPATLSLSPGERATLSCRSSKSLQNVNGNTYLYWFQQKPGQSPQLLIYRMSNLNSGVPDRFSGSGSGTEFTLTISSLEPEDFAVYYCMQHLEYPITFGAGTKLEIKRTVAAPSVFIFPPSDEQLKSGTASVVCLLNNFYPREAKVQWKVDNALQSGNSQESVTEQDSKDSTYSLSSTLTLSKADYEKHKVYACEVTHQGLSSPVTKSFNRGEC
9 | 8.99 fold |  | 1.51 fold | 4.45 fold | 2.11 fold |  |  | S267D (antibody, human IgG1, kappa, HuAM4G7 IgG1 Fc variant) heavy: not shown light: DIVMTQSPATLSLSPGERATLSCRSSKSLQNVNGNTYLYWFQQKPGQSPQLLIYRMSNLNSGVPDRFSGSGSGTEFTLTISSLEPEDFAVYYCMQHLEYPITFGAGTKLEIKRTVAAPSVFIFPPSDEQLKSGTASVVCLLNNFYPREAKVQWKVDNALQSGNSQESVTEQDSKDSTYSLSSTLTLSKADYEKHKVYACEVTHQGLSSPVTKSFNRGEC
10 | 122 fold |  |  | 43.1 fold | 0.224 fold |  | no binding | S267E/L328Y (antibody, human IgG1, kappa, HuAM4G7 IgG1 Fc variant) heavy: not shown light: DIVMTQSPATLSLSPGERATLSCRSSKSLQNVNGNTYLYWFQQKPGQSPQLLIYRMSNLNSGVPDRFSGSGSGTEFTLTISSLEPEDFAVYYCMQHLEYPITFGAGTKLEIKRTVAAPSVFIFPPSDEQLKSGTASVVCLLNNFYPREAKVQWKVDNALQSGNSQESVTEQDSKDSTYSLSSTLTLSKADYEKHKVYACEVTHQGLSSPVTKSFNRGEC
11 | 3.13 fold |  | 0.547 fold | 1.91 fold | 1.25 fold |  |  | V266M (antibody, human IgG1, kappa, HuAM4G7 IgG1 Fc variant) heavy: not shown light: DIVMTQSPATLSLSPGERATLSCRSSKSLQNVNGNTYLYWFQQKPGQSPQLLIYRMSNLNSGVPDRFSGSGSGTEFTLTISSLEPEDFAVYYCMQHLEYPITFGAGTKLEIKRTVAAPSVFIFPPSDEQLKSGTASVVCLLNNFYPREAKVQWKVDNALQSGNSQESVTEQDSKDSTYSLSSTLTLSKADYEKHKVYACEVTHQGLSSPVTKSFNRGEC
12 | 120 fold |  | 3.74 fold | 111 fold | 23.2 fold |  |  | anti-CD19 antibody HuAM4G7 IgG1 Fc variant S239D/S267E (antibody, Positions are EU numbers, not positions on the UniProt entry; copies: 2 + 2) heavy: not shown light: DIVMTQSPATLSLSPGERATLSCRSSKSLQNVNGNTYLYWFQQKPGQSPQLLIYRMSNLNSGVPDRFSGSGSGTEFTLTISSLEPEDFAVYYCMQHLEYPITFGAGTKLEIKRTVAAPSVFIFPPSDEQLKSGTASVVCLLNNFYPREAKVQWKVDNALQSGNSQESVTEQDSKDSTYSLSSTLTLSKADYEKHKVYACEVTHQGLSSPVTKSFNRGEC
